Patent US20220298254A1 (HUMMINGBIRD BIOSCIENCE HOLDINGS PTE, published 2022)
Read-outs that look alike come from different tables or passages of the source.

What was measured:
[1] = target: T1, human CD47 (recombinant protein, construct not stated) (human, UniProt Q08722 19-141); test: ELISA on coated human CD47
T1 construct: also called hCD47; human CD47 protein
Method: (§1) 96-well plates (Nunc, Denmark) were coated with 1 μg/ml of human CD47 or VISTA protein in PBS, for 1 h at room temperature. Plates were blocked for 1 h at room temperature with 1% BSA in Tris buffer saline containing 0.05% Tween 20 (TBS-T). The test antigen-binding molecules were added at concentrations ranging from to 0.002 μg/ml to 200 μg/ml, and the plates were incubated at room temperature for 1 h. Plates were then washed three times with TBS-T, and were then incubated with a HRP-conjugated secondary antibody for 1 h at room temperature. After washing, plates were developed with colorimetric detection substrate 3,3′,5,5′-tetramethylbenzidine (Turbo-TMB; Pierce, USA). The reaction was stopped after 3.5 min with 2M […], and OD was measured at 450 nm.

[2] = target: human VISTA protein (human, UniProt Q9H7M9 33-194, limits assumed); test: ELISA on coated human VISTA protein
Method: as §1
In a separate ELISA, the antigen-binding molecules were evaluated for binding to human VISTA.

[3] = target: T2, his-tagged human CD47 (human, UniProt Q08722 19-141); test: BLI, his-tagged human CD47 on anti-Penta-HIS (HIS1K) sensors, antibody as analyte
T2 construct: not shown: his tag
Method: (§2) Buffer baseline was obtained for 30 s, and then sensors were loaded with his-tagged human CD47 (1.2 μM) for 120 s.

[4] = target: T3, untagged human CD47 protein (Sinobiological Inc) (human, UniProt Q08722 19-141); test: competition ELISA: inhibition of His-tagged SIRPα binding to coated human CD47
T3 construct: Bought

[5] = target: T1, human CD47 (recombinant protein, …); test: BLI (BLItz), IgG1 captured on anti-human Fc tips, human CD47 as analyte, 1:1 global fit
Method: Bio-Layer Interferometry (BLI) experiments were performed using a single channel BLItz system (ForteBio, Menlo Park, Calif.) using Anti-human immunoglobulin G (IgG) Fc (AHC) coated biosensor tips (Pall ForteBio, Menlo Park, Calif.) for capturing human IgGs. Biosensors were first hydrated for at least 10 m in assay buffer (phosphate buffered saline) followed by buffer baseline for 30 s and loading of the human IgGs onto the biosensor tips at concentrations ranging from 25-50 nM for 120 s. The tips were then washed briefly for 30 s with the assay buffer to remove nonspecifically bound proteins or unbound IgGs for obtaining a second buffer baseline. […] All the BLITz runs were measured at room temperature at a stirring speed of 1000 rpm and AHC biosensors were regenerated using 10 mM of glycine (pH 2.7) after the assay. Binding affinity between the immobilized antibodies on the AHC sensors and human CD47 were determined by analyzing the binding kinetic curves using the software BLItz Pro. All the sensorgrams were reference subtracted and globally fitted into a 1:1 model which analysed the binding curves at different concentrations of antigens and generated kinetic constants (KD/Ka/Kd) for the globally fitted data. […]
(§3) The anti-CD47 antibody clones in IgG1 format were analyzed for binding affinity to human CD47.

[6] = target: T1, human CD47 (recombinant protein, …); test: as above; remark: listed apart in the source
Method: Biosensors were first hydrated for at least 10 m in assay buffer (phosphate buffered saline) followed by buffer baseline for 60 s and loading of the human IgGs onto the biosensor tips at 25 nM for 120 s. The tips were then washed briefly for 60 s with the assay buffer to remove nonspecifically bound proteins or unbound IgGs for obtaining a second buffer baseline. The association phase of the IgGs with antigens (250 nM to 62.5 nM) was set up at 120 s which was followed by a dissociation phase (assay buffer alone) for 120 s. All the BLITz runs were measured at room temperature at a stirring speed of 1000 rpm and AHC biosensors were regenerated using 10 mM of glycine (pH 2.7) after the assay. Binding affinity between the immobilized antibodies on the AHC sensors and human CD47 were determined by analyzing the binding kinetic curves using the software BLItz Pro. All the sensorgrams were reference subtracted and globally fitted into a 1:1 model which analysed the binding curves at different concentrations of antigens and generated kinetic constants (KD/Ka/Kd) for the globally fitted data. All the binding curves were subjected to step correction which corrects the misalignment between association and dissociation steps and only the curves with R² values greater than 0.9 were used for analysis.

[7] = target: T2, his-tagged human CD47; test: BLI (Octet), his-tagged human CD47 loaded on anti-Penta-HIS (HIS1K) sensors, antibody as analyte
Method: as §2

[8] = target: T1, human CD47 (recombinant protein, …); test: BLI (BLItz), IgG captured on anti-human IgG Fc (AHC) tips, human CD47 as analyte, global 1:1 fit
Method: Bio-Layer Interferometry (BLI) experiments were performed using a single channel BLItz system (ForteBio, Menlo Park, Calif.) using Anti-human immunoglobulin G (IgG) Fc (AHC) coated biosensor tips (Pall ForteBio, Menlo Park, Calif.) for capturing human IgGs. Biosensors were first hydrated for at least 10 m in assay buffer (phosphate buffered saline) followed by buffer baseline for 30 s and loading of the human IgGs onto the biosensor tips at concentrations ranging from 25-50 nM for 120 s. The tips were then washed briefly for 30 s with the assay buffer to remove nonspecifically bound proteins or unbound IgGs for obtaining a second buffer baseline. The association phase of the IgGs with antigens (500 nM-0 nM) was set up at 120 s which was followed by a dissociation phase (assay buffer alone) for 120 s. All the BLITz runs were measured at room temperature at a stirring speed of 1000 rpm and AHC biosensors were regenerated using 10 mM of glycine (pH 2.7) after the assay. Binding affinity between the immobilized antibodies on the AHC sensors and human CD47 were determined by analyzing the binding kinetic curves using the software BLItz Pro. All the sensorgrams were reference subtracted and globally fitted into a 1:1 model which analysed the binding curves at different concentrations of antigens and generated kinetic constants (KD/Ka/Kd) for the globally fitted data. All the binding curves were subjected to step correction which corrects the misalignment between association and dissociation steps and only the curves with R² values greater than 0.9 were used for analysis.
as §3

B1: anti-CD47 clone 1-1-A1_BM IgG1 (antibody, V domains shown)
VH: QVQLQQSGPDLKKPGASVKVSCKVSGYTFTNYVIHWVRQKPGQGLEWMGYINPYNDGTKSNEKFKGKATLTSDKSSTSAYMELSSLTSEDTAVYYCASGGYYTMDYWGQGTSVTVSS
VL: DVVMTQTPLSLPVTLGDQASISCRSSQHLEYSNGYSYLHWYQQRPGQSPQLLIYKISNRFSGVPDRFSGSGSGTDFTLKISRVEAEDLGVYYCSQSTHVPYTFGGGTKLEIKR
EC50 [1]: 0.0018 µg/mL | Fold increase in EC50 relative to 1-1-A1_BM [1]: 1 fold | binding result [2]: no binding (tested: 0.002 µg/ml to 200 µg/ml) | Kd [3]: 10.4 nM | Fold increase in IC50 relative to 1-1-A1_BM [4]: 1 fold | IC50 [4]: 0.474 µg/mL | Kd [5]: 16.1 nM | Kd [6]: 9.31 nM | koff [6]: 0.00121 s⁻¹ | kon [6]: 130000 M⁻¹ s⁻¹ | koff [7]: 0.000618 s⁻¹ | kon [7]: 59400 M⁻¹ s⁻¹ | koff [8]: 0.00217 s⁻¹ | kon [8]: 134000 M⁻¹ s⁻¹
